Experimental data taken from publication PMC9040003 (Science (New York, N.Y.), 2022).

How the values were obtained:
Format in all cases: binding, Arabidopsis thaliana
[1] = tested on: HERK1 ectodomain (MBP-tagged); conditions: MBP-tagged ectodomain purified from Escherichia coli; biotinylated peptide
[2] = tested on: ANJ ectodomain (MBP-tagged); conditions: MBP-tagged ectodomain purified from Escherichia coli; biotinylated peptide
[3] = tested on: FER ectodomain (6×His-tagged); conditions: 6×His-tagged ectodomain purified from insect cells; biotinylated peptide
[4] = tested on: HERK1 ectodomain (6×His-tagged); conditions: 6×His-tagged ectodomain purified from insect cells; biotinylated peptide
[5] = tested on: ANJ ectodomain (6×His-tagged); conditions: 6×His-tagged ectodomain purified from insect cells; biotinylated peptide
[6] = tested on: FER ectodomain (MBP-tagged); conditions: MBP-tagged ectodomain purified from Escherichia coli; biotinylated peptide

binding to HERK1 ectodomain (pull-down) [1]: bind | binding to ANJ ectodomain (pull-down) [2]: bind | binding to FER ectodomain (pull-down) [3]: bind | binding to HERK1 ectodomain (pull-down) [4]: bind | binding to ANJ ectodomain (pull-down) [5]: bind | binding to FER ectodomain (pull-down) [6]: bind
B1: RALF16: RALF (rapid alkalinization factor) peptide, pollen tube–specific, Arabidopsis (peptide)
peptide: RTLGYGSIKGDRIPACGYKNPNSCVKQPVNHYHRGCEKITRCARDAARYTESFNVDDDESPIINLH
modifications: also: biotin, position not given here
